{
  "source": "paper PMC3894786",
  "about": "(Cell, 2012)",
  "test_in_all_cases": "LUMIER with BACON",
  "key": {"CDK6": {"target": "CDK6 (human, UniProt Q00534 1-326)", "sequence (Q00534 whole entry)": "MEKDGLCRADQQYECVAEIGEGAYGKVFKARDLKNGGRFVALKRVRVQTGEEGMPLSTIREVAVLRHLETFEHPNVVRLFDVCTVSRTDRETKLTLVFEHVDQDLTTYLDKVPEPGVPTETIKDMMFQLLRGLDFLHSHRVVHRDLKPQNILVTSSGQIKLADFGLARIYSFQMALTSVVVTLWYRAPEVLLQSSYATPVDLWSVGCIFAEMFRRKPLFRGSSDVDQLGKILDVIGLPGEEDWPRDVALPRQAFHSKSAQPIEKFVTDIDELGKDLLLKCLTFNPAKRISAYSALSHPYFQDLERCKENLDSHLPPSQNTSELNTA"}, "LCK": {"target": "LCK (human, UniProt P06239 1-509)", "sequence (P06239 whole entry)": "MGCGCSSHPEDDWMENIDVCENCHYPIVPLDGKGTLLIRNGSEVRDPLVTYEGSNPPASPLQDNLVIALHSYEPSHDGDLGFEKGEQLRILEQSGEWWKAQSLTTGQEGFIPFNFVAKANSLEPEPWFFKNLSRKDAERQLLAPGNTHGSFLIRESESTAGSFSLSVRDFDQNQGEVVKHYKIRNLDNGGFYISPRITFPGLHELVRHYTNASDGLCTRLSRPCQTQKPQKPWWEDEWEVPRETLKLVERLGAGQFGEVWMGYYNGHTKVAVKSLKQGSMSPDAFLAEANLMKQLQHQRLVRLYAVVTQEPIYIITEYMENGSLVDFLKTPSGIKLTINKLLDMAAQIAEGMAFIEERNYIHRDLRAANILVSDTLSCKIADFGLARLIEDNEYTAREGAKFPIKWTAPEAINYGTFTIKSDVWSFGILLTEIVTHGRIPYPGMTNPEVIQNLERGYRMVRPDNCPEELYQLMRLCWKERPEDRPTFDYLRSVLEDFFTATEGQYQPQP"}, "FGFR3": {"target": "FGFR3 (human, UniProt P22607 23-806)", "sequence (P22607 23-806)": "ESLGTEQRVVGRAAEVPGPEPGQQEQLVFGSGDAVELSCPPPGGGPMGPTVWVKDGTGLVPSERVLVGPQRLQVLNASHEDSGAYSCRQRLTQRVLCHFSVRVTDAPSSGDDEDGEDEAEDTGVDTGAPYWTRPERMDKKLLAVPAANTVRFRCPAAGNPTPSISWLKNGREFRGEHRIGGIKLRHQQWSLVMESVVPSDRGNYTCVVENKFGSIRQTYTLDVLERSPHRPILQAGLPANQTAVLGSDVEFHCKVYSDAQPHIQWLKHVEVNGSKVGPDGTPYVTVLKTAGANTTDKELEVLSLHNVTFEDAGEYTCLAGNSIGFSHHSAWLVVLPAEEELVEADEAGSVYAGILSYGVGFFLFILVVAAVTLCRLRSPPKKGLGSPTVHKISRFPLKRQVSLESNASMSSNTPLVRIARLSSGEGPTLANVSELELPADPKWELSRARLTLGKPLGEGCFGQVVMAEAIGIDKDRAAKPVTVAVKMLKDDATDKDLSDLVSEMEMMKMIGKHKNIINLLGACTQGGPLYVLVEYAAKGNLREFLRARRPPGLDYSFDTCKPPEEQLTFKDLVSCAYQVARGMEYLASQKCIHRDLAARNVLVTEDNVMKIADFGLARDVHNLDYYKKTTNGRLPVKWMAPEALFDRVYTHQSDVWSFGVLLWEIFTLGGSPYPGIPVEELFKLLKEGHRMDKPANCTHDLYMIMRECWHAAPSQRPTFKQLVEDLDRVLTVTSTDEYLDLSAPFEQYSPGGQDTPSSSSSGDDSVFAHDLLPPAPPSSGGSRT"}, "STK38": {"target": "STK38 (human, UniProt Q15208 1-465)", "sequence (Q15208 whole entry)": "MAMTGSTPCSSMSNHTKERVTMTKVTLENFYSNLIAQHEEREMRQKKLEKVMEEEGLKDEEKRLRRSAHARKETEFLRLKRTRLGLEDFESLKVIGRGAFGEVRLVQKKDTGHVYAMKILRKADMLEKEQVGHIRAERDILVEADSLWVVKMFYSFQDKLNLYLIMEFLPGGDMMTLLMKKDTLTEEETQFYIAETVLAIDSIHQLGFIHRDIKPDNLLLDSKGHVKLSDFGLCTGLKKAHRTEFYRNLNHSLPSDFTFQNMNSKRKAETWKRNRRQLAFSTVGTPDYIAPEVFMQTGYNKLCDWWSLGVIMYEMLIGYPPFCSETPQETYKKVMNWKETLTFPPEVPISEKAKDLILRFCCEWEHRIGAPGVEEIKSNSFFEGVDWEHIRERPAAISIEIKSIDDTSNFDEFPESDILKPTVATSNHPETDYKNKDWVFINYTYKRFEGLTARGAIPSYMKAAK"}},
  "data": [
    {"binder": "Renilla luciferase-tagged HSP90β (natural protein) not shown", "values": [
      {"measurement": "half-life of dissociation after 500 nM ganetespib", "setting": "CDK6", "result": "~3", "unit": "min"},
      {"measurement": "half-life of dissociation after 500 nM ganetespib", "setting": "LCK", "result": "~3", "unit": "min"},
      {"measurement": "half-life of dissociation after 500 nM ganetespib", "setting": "FGFR3", "result": 29, "unit": "min"},
      {"measurement": "half-life of dissociation after 500 nM ganetespib", "setting": "STK38", "result": "~3", "unit": "min"}
    ]}
  ]
}
